T1: SsArd1 E35F mutant (Sulfolobus solfataricus) (UniProt Q980R9)
T1 sequence: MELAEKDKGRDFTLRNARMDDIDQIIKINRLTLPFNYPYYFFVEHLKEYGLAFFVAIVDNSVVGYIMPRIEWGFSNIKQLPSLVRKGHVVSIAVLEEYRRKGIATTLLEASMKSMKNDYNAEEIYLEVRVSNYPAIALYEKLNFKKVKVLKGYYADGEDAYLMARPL

T2: SsArd1 E35V mutant (Sulfolobus solfataricus) (UniProt Q980R9)
T2 sequence: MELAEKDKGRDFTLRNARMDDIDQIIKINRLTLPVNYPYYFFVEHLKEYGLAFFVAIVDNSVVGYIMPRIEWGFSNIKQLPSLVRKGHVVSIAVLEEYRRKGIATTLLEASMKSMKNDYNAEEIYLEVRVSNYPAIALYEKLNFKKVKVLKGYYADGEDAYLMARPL

T3: Sulfolobus solfataricus Ard1 (SsArd1), wild type (Sulfolobus solfataricus, UniProt Q980R9 1-167)
T3 construct: N-alpha-acetyltransferase Ard1 of Sulfolobus solfataricus (NatA family); one molecule in the asymmetric unit; also called wild-type SsArd1; source: E. coli BL21 (DE3), purified (Ni-Sepharose, size-exclusion chromatography)
T3 sequence: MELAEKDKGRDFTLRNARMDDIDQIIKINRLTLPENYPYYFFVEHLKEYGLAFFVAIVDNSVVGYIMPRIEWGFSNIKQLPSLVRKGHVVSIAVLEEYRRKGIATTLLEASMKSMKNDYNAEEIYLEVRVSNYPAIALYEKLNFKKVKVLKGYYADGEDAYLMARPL

T4: SsArd1 E35A mutant (Sulfolobus solfataricus) (UniProt Q980R9)
T4 sequence: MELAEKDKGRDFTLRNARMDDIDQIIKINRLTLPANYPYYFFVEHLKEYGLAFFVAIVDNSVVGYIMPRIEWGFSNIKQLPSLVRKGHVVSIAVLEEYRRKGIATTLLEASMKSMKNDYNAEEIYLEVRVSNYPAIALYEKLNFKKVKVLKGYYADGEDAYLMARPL


Key:
[1] = biological target: T5, SsArd1 (Saccharolobus solfataricus, UniProt Q980R9); assay: X-ray crystal structure, […] Å; format: binding; conditions: co-crystallised binary complex; CoA also in ternary complex with peptide
T5 construct: gene ard1; pET28a, C-terminal His6-tag, expressed in E. coli BL21(DE3); monomer

[2] = biological target: T1, SsArd1 E35F mutant (Sulfolobus solfataricus)
[3] = biological target: T2, SsArd1 E35V mutant (Sulfolobus solfataricus)
[4] = biological target: T3, Sulfolobus solfataricus Ard1 (SsArd1), …; assay: crystal structure; SsArd1-CoA crystals soaked with 2 mM Alba peptide (SSGTPT), dehydrated over 12.5% w/v PEG 4,000; ternary SsArd1-CoA/peptide complex at 1.84 Å; conditions: both partners purified
[5] = biological target: T4, SsArd1 E35A mutant (Sulfolobus solfataricus)
[6] = substrate: CC(=O)SCCNC(=O)CCNC(=O)[C@H](O)C(C)(C)COP(=O)(O)OP(=O)(O)OC[C@H]1O[C@@H](n2cnc3c(N)ncnc32)[C@H](O)[C@@H]1OP(=O)(O)O; assay: Ellman (DTNB) acetyltransferase assay, Michaelis-Menten fit; format: biochemical, Saccharolobus solfataricus; conditions: saturating Alba peptide (SSGTPT), pH 8.0, 65°C
Source text: Ellman (DTNB) acetyltransferase assay, Michaelis-Menten fit on SsArd1

[7] = mutant given as R132A in Table 3, N132A in text

Molecule	Km [6] [µM]	kcat [6] [s⁻¹]	kcat/Km [6] [M⁻¹ s⁻¹]	also measured
CC(C)(COP(=O)(O)OP(=O)(O)OC[C@H]1O[C@@H](n2cnc3c(N)ncnc32)[C@H](O)[C@@H]1OP(=O)(O)O)[C@@H](O)C(=O)NCCC(=O)NCCS [CoA]	–	–	–	X-ray crystal structure, 2.13 Å [1]: 4R3K for SsArd1-CoA and 4R3L for SsArd1-CoA/peptide
AAKKRG [Hjc peptide (AAKKRG), N-terminal 6-mer of the Holliday junction-resolving enzyme Hjc]	–	–	–	acetyltransferase activity with the Hjc substrate peptide, against wild-type SsArd1 and the E35A mutant [2]: 2 fold; acetyltransferase activity with the Hjc substrate peptide, against wild-type SsArd1 and the E35A mutant [3]: 2 fold
SSGTPT (N-terminal 6 residues of Alba of Sulfolobus solfataricus, which has Ser at its N-terminus; Only the first 2 residues are seen in the electron density of the ternary complex; also called Alba substrate peptide; 6-mer Alba peptide; source: synthetic peptide (GenScript)) [Alba peptide (SSGTPT), N-terminal 6-mer of the chromatin protein Alba]	–	–	–	binding result [4]: binds
MEEKVG [SSB peptide (MEEKVG), N-terminal 6-mer of the single-stranded DNA-binding protein SSB]	–	–	–	acetyltransferase activity with the SSB substrate peptide, against wild-type SsArd1 [5]: 8 fold; acetyltransferase activity with the SSB substrate peptide, against wild-type SsArd1 [3]: 5 fold
SsArd1 (Saccharolobus solfataricus P2) (protein, pET28a, C-terminal His6-tag, expressed in E. coli BL21(DE3); monomer) MELAEKDKGRDFTLRNARMDDIDQIIKINRLTLPENYPYYFFVEHLKEYGLAFFVAIVDNSVVGYIMPRIEWGFSNIKQLPSLVRKGHVVSIAVLEEYRRKGIATTLLEASMKSMKNDYNAEEIYLEVRVSNYPAIALYEKLNFKKVKVLKGYYADGEDAYLMARPL	67.17 ± 7.48	0.5595 ± 0.0275	8370	–
SsArd1 (Saccharolobus solfataricus P2; T105A) (protein, pET28a, C-terminal His6-tag, expressed in E. coli BL21(DE3); monomer) MELAEKDKGRDFTLRNARMDDIDQIIKINRLTLPENYPYYFFVEHLKEYGLAFFVAIVDNSVVGYIMPRIEWGFSNIKQLPSLVRKGHVVSIAVLEEYRRKGIAATLLEASMKSMKNDYNAEEIYLEVRVSNYPAIALYEKLNFKKVKVLKGYYADGEDAYLMARPL	195.89 ± 12.27	0.5818 ± 0.0205	2970	–
SsArd1 (Saccharolobus solfataricus P2; N132A) (protein, pET28a, C-terminal His6-tag, expressed in E. coli BL21(DE3); monomer) MELAEKDKGRDFTLRNARMDDIDQIIKINRLTLPENYPYYFFVEHLKEYGLAFFVAIVDNSVVGYIMPRIEWGFSNIKQLPSLVRKGHVVSIAVLEEYRRKGIATTLLEASMKSMKNDYNAEEIYLEVRVSAYPAIALYEKLNFKKVKVLKGYYADGEDAYLMARPL	–	–	–	Km [6, 7]: 279.37 ± 75.86 µM; kcat [6, 7]: 0.556 ± 0.0647 s⁻¹; kcat/Km [6, 7]: 2050 M⁻¹ s⁻¹
SsArd1 (Saccharolobus solfataricus P2; R100A) (protein, pET28a, C-terminal His6-tag, expressed in E. coli BL21(DE3); monomer) MELAEKDKGRDFTLRNARMDDIDQIIKINRLTLPENYPYYFFVEHLKEYGLAFFVAIVDNSVVGYIMPRIEWGFSNIKQLPSLVRKGHVVSIAVLEEYRAKGIATTLLEASMKSMKNDYNAEEIYLEVRVSNYPAIALYEKLNFKKVKVLKGYYADGEDAYLMARPL	466.98 ± 50.83	0.4783 ± 0.0448	1020	–
